In patent US20130224854A1 (NIPPON KAYAKU, published 2013):

Target: T1, single-chain type IV collagen alpha1 polypeptide (human) (human, UniProt P02462 173-1669, lower proportion of hydroxylated proline and hydroxylated lysine residues than type IV collagen; carries a sugar chain recognized by ABA lectin (positions not given))
T1 construct: mature; Secreted by human cancer cells (HLF, UO31, Lu65A); also called single-chain type IV collagen polypeptide; single-chain COL4
Assay: competition ELISA at equilibrium in solution (method of Djavadi-Ohaniance), free antibody measured on immobilized antigen
Method: The dissociation constant of the purified monoclonal antibody NK46141 was determined by ELISA with reference to the method of Djavadi-Ohaniance L. et al. [Djavadi-Ohaniance L., et al., (1996) In Antibody Engineering (Eds.: McCafferty J., et al.), Chapter 4, pp. 77-97., IRL Press, Oxford.].
In brief, Immunoplate (Nunc; manufactured by Thermo Fisher Scientific Inc.) with the single-chain type IV collagen al polypeptide (antigen) immobilized thereon in advance was prepared. Meanwhile, JK132 and NK46141 having a constant concentration (0.10 μg/ml) were each incubated with varying concentrations of the antigen for a sufficient time until reaching equilibrium. This incubation solution was added to the ELISA wells to determine the amount of free antibodies. Since the antigen-antibody reaction follows the law of mass action, measured values were applied to formula 1 below. X and Y in formula 2 below were determined, and a graph was drawn to determine the dissociation constant from the slope (1/Kd).

T1 sequence (P02462 173-1669): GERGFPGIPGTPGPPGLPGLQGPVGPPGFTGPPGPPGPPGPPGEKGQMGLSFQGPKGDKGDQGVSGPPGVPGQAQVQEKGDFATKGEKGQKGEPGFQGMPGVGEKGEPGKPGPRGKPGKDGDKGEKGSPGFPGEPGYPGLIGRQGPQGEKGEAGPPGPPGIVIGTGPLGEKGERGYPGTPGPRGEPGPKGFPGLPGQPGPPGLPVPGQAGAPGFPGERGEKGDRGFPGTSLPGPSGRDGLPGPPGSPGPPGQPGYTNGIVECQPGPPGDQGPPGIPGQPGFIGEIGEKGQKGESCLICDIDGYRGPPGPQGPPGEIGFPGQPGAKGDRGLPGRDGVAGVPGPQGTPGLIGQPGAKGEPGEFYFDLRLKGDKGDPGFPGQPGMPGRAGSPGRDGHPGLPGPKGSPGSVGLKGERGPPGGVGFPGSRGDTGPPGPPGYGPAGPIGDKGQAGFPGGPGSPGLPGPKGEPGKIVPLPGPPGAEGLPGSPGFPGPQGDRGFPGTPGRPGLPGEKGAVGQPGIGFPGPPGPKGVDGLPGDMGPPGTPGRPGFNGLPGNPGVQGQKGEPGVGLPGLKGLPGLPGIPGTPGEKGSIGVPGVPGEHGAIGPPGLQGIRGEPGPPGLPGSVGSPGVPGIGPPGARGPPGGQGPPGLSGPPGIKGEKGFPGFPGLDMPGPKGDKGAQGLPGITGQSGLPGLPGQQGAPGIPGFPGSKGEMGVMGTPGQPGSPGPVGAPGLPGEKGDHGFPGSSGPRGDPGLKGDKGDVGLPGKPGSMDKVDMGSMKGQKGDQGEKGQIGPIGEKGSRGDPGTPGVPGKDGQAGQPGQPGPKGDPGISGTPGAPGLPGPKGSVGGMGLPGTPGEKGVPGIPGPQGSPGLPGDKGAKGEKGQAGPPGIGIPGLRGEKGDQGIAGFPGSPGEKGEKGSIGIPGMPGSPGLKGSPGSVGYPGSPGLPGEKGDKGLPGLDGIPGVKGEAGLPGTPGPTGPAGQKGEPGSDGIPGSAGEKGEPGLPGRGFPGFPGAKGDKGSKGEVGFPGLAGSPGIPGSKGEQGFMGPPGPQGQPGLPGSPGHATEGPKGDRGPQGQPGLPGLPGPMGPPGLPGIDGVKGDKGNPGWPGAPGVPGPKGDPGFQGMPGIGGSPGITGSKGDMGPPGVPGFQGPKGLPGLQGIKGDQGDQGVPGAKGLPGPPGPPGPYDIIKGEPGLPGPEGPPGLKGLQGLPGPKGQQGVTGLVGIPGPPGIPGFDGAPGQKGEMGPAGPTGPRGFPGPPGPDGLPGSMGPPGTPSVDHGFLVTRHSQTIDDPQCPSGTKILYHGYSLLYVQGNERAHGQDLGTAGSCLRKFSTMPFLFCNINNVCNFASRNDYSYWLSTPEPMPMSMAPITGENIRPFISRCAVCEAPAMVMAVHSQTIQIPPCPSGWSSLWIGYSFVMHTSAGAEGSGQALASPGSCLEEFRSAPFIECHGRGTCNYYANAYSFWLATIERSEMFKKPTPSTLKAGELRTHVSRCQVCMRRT

B1: monoclonal antibody NK46141 (antibody, V domains shown)
VH: EVQLVESGGGLVKPGGSLKLSCAASGFTFTDYYMYWVRQTPEKRLEWVATISEGGSYTYYPDSVKGRFTISRDNAKNNLYLQMSSLKSEDTAMYYCASPYYGDGGFAYWGQGTLVTVSA
VL: DVLMTQTPLSLPVSLGDQASISCRSSQSIVHSDGNTYLEWYLQKPGQSPRLLIYKVSNRFSGVPDRFSGSGSGTDFTLKISRVEAEDLGVYYCFQGSHVPPTFGGGTKLEIKR
notes: also called anti-single-chain type IV collagen polypeptide antibody; Anti NK-Antigen monoclonal antibody #141
- Kd: 34 nM
